Source: PMC10195009

Target: afucosylated IgG-specific nanobody X0
Experiment: SPR
Conditions: parent: est. 0; read off a plot

Row | Substance | other: log2 fold change in KD [log2]
1 | afucosylated IgG1 Fc E269A | 0.95
2 | afucosylated IgG1 Fc H268A | -1.5
3 | afucosylated IgG1 Fc I332A | 0.08
4 | afucosylated IgG1 Fc L328A | -0.15
5 | afucosylated IgG1 Fc P329A | 0.03
